Source: US20240270853A1 (Chugai, published 2024)

T1: mouse DDR2 delta DSL-EJXM (stably expressed on Ba/F3 cell line) (mouse, UniProt Q62371 22-854)
T1 construct: Full length mouse DDR2 with Gln201-Val393 deleted; also called mouse DDR2 fragment with DSL domain and EJXM region (Gln201-Val393) deleted
T1 sequence: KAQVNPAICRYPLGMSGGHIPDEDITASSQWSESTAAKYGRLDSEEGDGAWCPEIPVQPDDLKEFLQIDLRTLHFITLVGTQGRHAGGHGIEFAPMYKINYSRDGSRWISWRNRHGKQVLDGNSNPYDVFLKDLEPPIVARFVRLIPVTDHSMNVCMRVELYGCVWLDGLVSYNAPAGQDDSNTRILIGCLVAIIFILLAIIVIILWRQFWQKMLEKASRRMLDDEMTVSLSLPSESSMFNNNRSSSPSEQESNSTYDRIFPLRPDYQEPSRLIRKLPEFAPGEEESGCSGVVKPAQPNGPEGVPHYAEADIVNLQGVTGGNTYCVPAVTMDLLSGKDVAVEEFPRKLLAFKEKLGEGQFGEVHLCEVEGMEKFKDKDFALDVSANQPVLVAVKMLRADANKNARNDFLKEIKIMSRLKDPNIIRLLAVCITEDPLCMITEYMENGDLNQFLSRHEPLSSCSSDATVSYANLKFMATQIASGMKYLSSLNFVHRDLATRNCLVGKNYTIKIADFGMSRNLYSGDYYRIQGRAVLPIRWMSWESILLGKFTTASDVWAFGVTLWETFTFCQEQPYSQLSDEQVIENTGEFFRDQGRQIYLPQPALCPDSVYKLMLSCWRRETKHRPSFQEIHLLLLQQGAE

T2: full length mouse DDR2 (stably expressed on Ba/F3 cell line) (mouse, UniProt Q62371 22-854)
T2 construct: also called moDDR2
T2 sequence: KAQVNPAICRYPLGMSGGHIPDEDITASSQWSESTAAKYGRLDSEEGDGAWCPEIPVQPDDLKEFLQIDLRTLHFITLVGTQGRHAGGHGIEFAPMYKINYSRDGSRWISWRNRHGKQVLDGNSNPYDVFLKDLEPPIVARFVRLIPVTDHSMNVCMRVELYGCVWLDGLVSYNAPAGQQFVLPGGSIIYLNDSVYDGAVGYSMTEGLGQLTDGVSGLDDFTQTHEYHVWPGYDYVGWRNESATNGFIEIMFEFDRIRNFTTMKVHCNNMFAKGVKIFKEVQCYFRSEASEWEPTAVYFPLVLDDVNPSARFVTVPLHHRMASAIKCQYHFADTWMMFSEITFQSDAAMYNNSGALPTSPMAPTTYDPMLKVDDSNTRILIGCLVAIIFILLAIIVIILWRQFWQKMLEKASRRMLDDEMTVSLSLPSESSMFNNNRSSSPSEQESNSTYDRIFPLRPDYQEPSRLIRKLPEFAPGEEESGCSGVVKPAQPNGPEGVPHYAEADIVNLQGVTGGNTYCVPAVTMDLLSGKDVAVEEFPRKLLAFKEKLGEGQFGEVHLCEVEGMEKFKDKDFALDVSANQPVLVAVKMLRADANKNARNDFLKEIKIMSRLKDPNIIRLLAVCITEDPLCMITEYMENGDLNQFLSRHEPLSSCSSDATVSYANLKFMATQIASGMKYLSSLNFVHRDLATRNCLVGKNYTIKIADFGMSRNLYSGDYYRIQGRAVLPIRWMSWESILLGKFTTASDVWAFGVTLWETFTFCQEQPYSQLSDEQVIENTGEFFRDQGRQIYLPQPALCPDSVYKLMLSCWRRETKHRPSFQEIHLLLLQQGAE

B1: DAB0009 (antibody, V domains shown)
VH: QSVEESGGRLVTPGTPLTLTCAVSGFSLNSHVMGWVRQAPGRGLECIGIIAVSGDIYYANWAKGRFTISKTSTTVDLRITSPTTEDTATYFCGSPTVINNNNLWGQGTLVTVSS
VL: AQVLTQTASPVSAAVGGTVTINCQSSQNVYGNNYLSWFQQKPGQPPKLLIYSTSTLASGVSSRFKGSGSGTQFTLTISDLECADAATYYCLGGYDCNIVDCRAFGGGTKVEIK
notes: Variable regions from immunized rabbits
B2: DAB0052 (antibody, V domains shown)
VH: QSVEESGGRLVTPGTPLTLTCTVSGFSLNRYTGIWVRQAPGKGLEWIGIISSDDRTWYASWAKGRFTISKTSTTVDLKITSPTIEDTATYFCARDVGGDSWFWGLWGQGTLVTVSS
VL: DIVMTQTPASVEAAVGGTVTIKCQASQSISSWLAWYQQKPGQPPKLLIYYASTLASGVPSRFSGSGSGTEFTLTISDLECADAATYYCQSNYYSSSNSNYGHAFGGGTKVEIK
notes: as for B1
B3: DAB0071 (antibody, V domains shown)
VH: QSLEESGGRLVTPGGSLTLTCTASGFSLSAYYMQWVRQAPGKGLEWIGWINTGGSAYYPSWARGRFTISKTSTTVDLKITSPTTEDTATYFCARSDASVHQFNLWGQGTLVTVSS
VL: DVVMTQTPASVEAAVGGTVTIKCQASESIGNALAWYQQRPGQPPKLLIYYASTLESGVPSRFKGSGSGTEFTLTISDLECADAATYYCQCTYGSGSSRGNAFGGGTKVEIK
notes: as for B1

How the values were obtained:
[1] = biological target: T1, mouse DDR2 delta DSL-EJXM (stably …); assay: flow cytometry on Ba/F3 cells expressing mouse DDR2 delta DSL-EJXM
Method: Mean Fluorescent Intensity (MFI) of each antibody was measured by flow cytometry using Ba/F3 cell line that stably expresses mouse DDR2 fragment in which Discoidin-like (DSL) domain and extracellular juxtamembrane (EJXM) region were deleted from full length mouse DDR2 (mouse DDR2 delta DSL-EJXM). Names under the horizontal axis are names of the tested antibodies. IC17dK is an anti-KLH antibody used as a negative control.
To map more detailed binding epitope of anti-DDR2 antibodies, fragment of mouse DDR2, in which discoidin-like (DSL) domain and extracellular juxtamembrane (EJXM) region (Gln201-Val393) are deleted from full length mouse DDR2 (mouse DDR2 delta DSL-EJXM) was made. Mouse DDR2 delta DSL-EJXM stably-expressing Ba/F3 cell line was prepared. Binding of the antibodies to this cell line was measured by flow cytometry and MFI value was acquired. Epitope of antibodies which can bind to full length mouse DDR2 but not to mouse DDR2 delta DSL-EJXM would be DSL-EJXM region. Epitope of antibodies which can bind to both full length mouse DDR2 and mouse DDR2 delta DSL-EJXM would be discoidin (DS) domain. In Table2, “Yes” means that tested antibody can bind to the cell line and “No” means that antibody cannot bind to the cell line.

[2] = biological target: T2, full length mouse DDR2 (stably …); assay: flow cytometry on Ba/F3 cells expressing full length mouse DDR2, one-arm format
Method: Mean Fluorescent Intensity (MFI) of each antibody was measured by flow cytometry using Ba/F3 cell line that stably expresses full length mouse DDR2. Names under the horizontal axis are names of the tested antibodies. IC17dK is an anti-KLH antibody used as a negative control.
To determine antibody binding to mouse DDR2, flow cytometry analysis was carried out by using mouse-DDR2-stably-expressing Ba/F3 cell line. One-arm format antibodies, which contains one antibody variable region in each molecule, were prepared to evaluate the binding by affinity mode.

Binder | binding result [1] | binding result [2]
B1 | no binding | binds
B2 | no binding | binds
B3 | no binding | binds
